Data taken from patent US20140087995A1 (published 2014).
Numbered stars: 1 amine (or outer) side, 2 acyl side, 3 side chain; on linkers, the order of the positions; unused ones are H or OH. Bridge positions count the residues as written; N and C are the ends. * marks the point of attachment. C20 diacid = O=C(O)CCCCCCCCCCCCCCCCCCC(=O)*; γGlu = O=C(O)[C@H](CCC(=O)[*:2])N[*:1]

T1: human amylin receptor (amylin 3(a) receptor: human calcitonin receptor plus RAMP-3) (human, UniProt P30988 25-474; O60896 24-148, limits assumed)
T1 sequence (looked up) 1: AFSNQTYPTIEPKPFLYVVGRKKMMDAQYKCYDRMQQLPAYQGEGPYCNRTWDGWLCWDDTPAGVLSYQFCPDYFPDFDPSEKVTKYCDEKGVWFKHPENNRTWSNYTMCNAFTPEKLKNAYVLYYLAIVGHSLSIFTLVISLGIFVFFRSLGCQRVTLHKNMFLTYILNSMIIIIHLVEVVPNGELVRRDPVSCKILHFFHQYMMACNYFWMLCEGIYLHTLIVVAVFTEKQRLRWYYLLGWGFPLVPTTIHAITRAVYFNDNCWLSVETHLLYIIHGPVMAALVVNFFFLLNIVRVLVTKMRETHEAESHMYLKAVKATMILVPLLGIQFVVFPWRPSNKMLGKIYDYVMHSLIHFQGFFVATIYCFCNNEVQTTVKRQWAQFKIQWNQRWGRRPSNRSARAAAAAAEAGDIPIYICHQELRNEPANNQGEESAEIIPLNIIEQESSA
T1 sequence (looked up) 2: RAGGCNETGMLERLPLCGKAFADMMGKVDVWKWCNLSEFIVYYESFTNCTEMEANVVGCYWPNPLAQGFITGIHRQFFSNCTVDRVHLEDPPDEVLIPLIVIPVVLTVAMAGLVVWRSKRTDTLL

T2: human calcitonin receptor (human, UniProt P30988 25-474)
T2 sequence (looked up): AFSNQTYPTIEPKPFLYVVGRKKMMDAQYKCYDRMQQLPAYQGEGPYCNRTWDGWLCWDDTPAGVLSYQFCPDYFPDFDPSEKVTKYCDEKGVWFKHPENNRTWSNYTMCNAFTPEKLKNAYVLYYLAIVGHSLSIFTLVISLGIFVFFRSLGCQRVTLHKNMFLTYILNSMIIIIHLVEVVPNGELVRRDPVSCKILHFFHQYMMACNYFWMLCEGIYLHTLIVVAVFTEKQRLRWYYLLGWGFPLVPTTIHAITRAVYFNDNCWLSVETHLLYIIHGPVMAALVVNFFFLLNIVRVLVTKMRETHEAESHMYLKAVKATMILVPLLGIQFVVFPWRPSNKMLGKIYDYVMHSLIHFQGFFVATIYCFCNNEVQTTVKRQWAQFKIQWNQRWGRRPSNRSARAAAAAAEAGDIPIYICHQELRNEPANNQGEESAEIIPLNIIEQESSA


What was measured:
[1] = target: T1, human amylin receptor (amylin 3(a) …); assay: cell-based or functional assay
[2] = target: T2, human calcitonin receptor; assay: cell-based or functional assay
[3] = target: T1, human amylin receptor (amylin 3(a) …); assay: SPA competition binding, membranes of Amylin 3(a)/CRE-luc BHK cells, displacement of 125I-rat amylin (Assay V)
Experimental: The binding assay was performed using scintillation proximity assay (SPA) beads (RPNQ0001) from PerkinElmer and cell membranes from the Amylin 3(a)/CRE-luc cells (as described in Assay (II)) were used. Membranes were prepared in the following way; the cells were rinsed with PBS and incubated with Versene for approximately 5 min before harvesting. The cells were flushed with PBS and the cell-suspension was centrifuged for 5 min at 1000 rpm. Cells were homogenized (ultrathurrax) in a buffer containing 20 mM Na-HEPES and 10 mM EDTA (pH 7.4) and centrifuged at 20.000 rpm for 15 min. The resulting pellet was resuspended, homogenized and centrifuged (20.000 rpm, 15 min) in a buffer containing 20 mM Na-HEPES and 0.1 mM EDTA (pH 7.4, buffer 2). The resulting pellet was resuspended in buffer 2 and protein concentration was measured (BCA protein Assay, Pierce). The homogenate was kept cold during the whole procedure. The membranes were kept at −80° C. until use. The assay was performed in a 384 well Optiplate (PerkinElmer) in a total volume of 40 ul. Membranes were mixed with SPA beads. Final concentration of membranes 35 ng/μL final and SPA beads was 0.05 mg/well. Test-compounds were dissolved in DMSO and further diluted in assay buffer (50 mM Hepes, pH 7.4, 1 mM CaCl2, 5 mM MgCl₂, 0.1% OA and 0.02% Tween20). […] The final mixture was incubated with shaking at 400 rpm for 120 min at 25° C. prior to centrifugation (1500 rpm, 10 min). Samples were analyzed on TopCounter™ (Packard). The IC₅₀ was calculated using (one site binding competition analysis) GraphPad Prism5 as a measure of receptor affinity.

Binder | hAmylin-R funct. EC50 [1] | Ratio hCT/hAmylin funct. (hCTR EC50 against hAmylin-R EC50) [2] | hCTR funct. EC50 [2] | IC50 [3]
{C20 diacid-γGlu}-KCNTATCATQRLANFLRHSSPNFGAIPSSTNVGPETY-NH2 (disulfide 2-7; SMILES CC[C@H](C)[C@H](NC(=O)[C@H](C)NC(=O)CNC(=O)[C@H](Cc1ccccc1)NC(=O)[C@H](CC(N)=O)NC(=O)[C@@H]1CCCN1C(=O)[C@H](CO)NC(=O)[C@H](CO)NC(=O)[C@H](Cc1c[nH]cn1)NC(=O)[C@H](CCCNC(=N)N)NC(=O)[C@H](CC(C)C)NC(=O)[C@H](Cc1ccccc1)NC(=O)[C@H](CC(N)=O)NC(=O)[C@H](C)NC(=O)[C@H](CC(C)C)NC(=O)[C@H](CCCNC(=N)N)NC(=O)[C@H](CCC(N)=O)NC(=O)[C@@H](NC(=O)[C@H](C)NC(=O)[C@@H]1CSSC[C@H](NC(=O)[C@H](CCCCN)NC(=O)CC[C@H](NC(=O)CCCCCCCCCCCCCCCCCCC(=O)O)C(=O)O)C(=O)N[C@@H](CC(N)=O)C(=O)N[C@@H]([C@@H](C)O)C(=O)N[C@@H](C)C(=O)N[C@@H]([C@@H](C)O)C(=O)N1)[C@@H](C)O)C(=O)N1CCC[C@H]1C(=O)N[C@@H](CO)C(=O)N[C@@H](CO)C(=O)N[C@H](C(=O)N[C@@H](CC(N)=O)C(=O)N[C@H](C(=O)NCC(=O)N1CCC[C@H]1C(=O)N[C@@H](CCC(=O)O)C(=O)N[C@H](C(=O)N[C@@H](Cc1ccc(O)cc1)C(N)=O)[C@@H](C)O)C(C)C)[C@@H](C)O, also called compound 29) | 0.099 nM | 8.7 | 0.857 nM | 0.577 nM
{C20 diacid-γGlu}-KCNTATCATQRLADFLRHSSPNFGAIPSSTNVGSNTP-NH2 (disulfide 2-7; SMILES CC[C@H](C)[C@H](NC(=O)[C@H](C)NC(=O)CNC(=O)[C@H](Cc1ccccc1)NC(=O)[C@H](CC(N)=O)NC(=O)[C@@H]1CCCN1C(=O)[C@H](CO)NC(=O)[C@H](CO)NC(=O)[C@H](Cc1c[nH]cn1)NC(=O)[C@H](CCCNC(=N)N)NC(=O)[C@H](CC(C)C)NC(=O)[C@H](Cc1ccccc1)NC(=O)[C@H](CC(=O)O)NC(=O)[C@H](C)NC(=O)[C@H](CC(C)C)NC(=O)[C@H](CCCNC(=N)N)NC(=O)[C@H](CCC(N)=O)NC(=O)[C@@H](NC(=O)[C@H](C)NC(=O)[C@@H]1CSSC[C@H](NC(=O)[C@H](CCCCN)NC(=O)CC[C@H](NC(=O)CCCCCCCCCCCCCCCCCCC(=O)O)C(=O)O)C(=O)N[C@@H](CC(N)=O)C(=O)N[C@@H]([C@@H](C)O)C(=O)N[C@@H](C)C(=O)N[C@@H]([C@@H](C)O)C(=O)N1)[C@@H](C)O)C(=O)N1CCC[C@H]1C(=O)N[C@@H](CO)C(=O)N[C@@H](CO)C(=O)N[C@H](C(=O)N[C@@H](CC(N)=O)C(=O)N[C@H](C(=O)NCC(=O)N[C@@H](CO)C(=O)N[C@@H](CC(N)=O)C(=O)N[C@H](C(=O)N1CCC[C@H]1C(N)=O)[C@@H](C)O)C(C)C)[C@@H](C)O, also called compound 10) | 0.072 nM | 1 | 0.07 nM | 0.082 nM
{C20 diacid-γGlu}-KCNTATCATQRLAEFLRHSSPNFGAIPSSTNVGSDTP-NH2 (disulfide 2-7; SMILES CC[C@H](C)[C@H](NC(=O)[C@H](C)NC(=O)CNC(=O)[C@H](Cc1ccccc1)NC(=O)[C@H](CC(N)=O)NC(=O)[C@@H]1CCCN1C(=O)[C@H](CO)NC(=O)[C@H](CO)NC(=O)[C@H](Cc1c[nH]cn1)NC(=O)[C@H](CCCNC(=N)N)NC(=O)[C@H](CC(C)C)NC(=O)[C@H](Cc1ccccc1)NC(=O)[C@H](CCC(=O)O)NC(=O)[C@H](C)NC(=O)[C@H](CC(C)C)NC(=O)[C@H](CCCNC(=N)N)NC(=O)[C@H](CCC(N)=O)NC(=O)[C@@H](NC(=O)[C@H](C)NC(=O)[C@@H]1CSSC[C@H](NC(=O)[C@H](CCCCN)NC(=O)CC[C@H](NC(=O)CCCCCCCCCCCCCCCCCCC(=O)O)C(=O)O)C(=O)N[C@@H](CC(N)=O)C(=O)N[C@@H]([C@@H](C)O)C(=O)N[C@@H](C)C(=O)N[C@@H]([C@@H](C)O)C(=O)N1)[C@@H](C)O)C(=O)N1CCC[C@H]1C(=O)N[C@@H](CO)C(=O)N[C@@H](CO)C(=O)N[C@H](C(=O)N[C@@H](CC(N)=O)C(=O)N[C@H](C(=O)NCC(=O)N[C@@H](CO)C(=O)N[C@@H](CC(=O)O)C(=O)N[C@H](C(=O)N1CCC[C@H]1C(N)=O)[C@@H](C)O)C(C)C)[C@@H](C)O, also called compound 11) | 0.12 nM | 0.9 | 0.112 nM | 0.105 nM
{C20 diacid-γGlu}-KCNTATCATQRLAEFLRHSSPNFGAIPSSTNVGSHTY-NH2 (disulfide 2-7; SMILES CC[C@H](C)[C@H](NC(=O)[C@H](C)NC(=O)CNC(=O)[C@H](Cc1ccccc1)NC(=O)[C@H](CC(N)=O)NC(=O)[C@@H]1CCCN1C(=O)[C@H](CO)NC(=O)[C@H](CO)NC(=O)[C@H](Cc1c[nH]cn1)NC(=O)[C@H](CCCNC(=N)N)NC(=O)[C@H](CC(C)C)NC(=O)[C@H](Cc1ccccc1)NC(=O)[C@H](CCC(=O)O)NC(=O)[C@H](C)NC(=O)[C@H](CC(C)C)NC(=O)[C@H](CCCNC(=N)N)NC(=O)[C@H](CCC(N)=O)NC(=O)[C@@H](NC(=O)[C@H](C)NC(=O)[C@@H]1CSSC[C@H](NC(=O)[C@H](CCCCN)NC(=O)CC[C@H](NC(=O)CCCCCCCCCCCCCCCCCCC(=O)O)C(=O)O)C(=O)N[C@@H](CC(N)=O)C(=O)N[C@@H]([C@@H](C)O)C(=O)N[C@@H](C)C(=O)N[C@@H]([C@@H](C)O)C(=O)N1)[C@@H](C)O)C(=O)N1CCC[C@H]1C(=O)N[C@@H](CO)C(=O)N[C@@H](CO)C(=O)N[C@H](C(=O)N[C@@H](CC(N)=O)C(=O)N[C@H](C(=O)NCC(=O)N[C@@H](CO)C(=O)N[C@@H](Cc1c[nH]cn1)C(=O)N[C@H](C(=O)N[C@@H](Cc1ccc(O)cc1)C(N)=O)[C@@H](C)O)C(C)C)[C@@H](C)O, also called compound 18) | 0.154 nM | 4.8 | 0.742 nM | 0.554 nM
{C20 diacid-γGlu}-KCNTATCATQRLAEFLRHSSPNFGAIPSSTNVGHNTY-NH2 (disulfide 2-7; SMILES CC[C@H](C)[C@H](NC(=O)[C@H](C)NC(=O)CNC(=O)[C@H](Cc1ccccc1)NC(=O)[C@H](CC(N)=O)NC(=O)[C@@H]1CCCN1C(=O)[C@H](CO)NC(=O)[C@H](CO)NC(=O)[C@H](Cc1c[nH]cn1)NC(=O)[C@H](CCCNC(=N)N)NC(=O)[C@H](CC(C)C)NC(=O)[C@H](Cc1ccccc1)NC(=O)[C@H](CCC(=O)O)NC(=O)[C@H](C)NC(=O)[C@H](CC(C)C)NC(=O)[C@H](CCCNC(=N)N)NC(=O)[C@H](CCC(N)=O)NC(=O)[C@@H](NC(=O)[C@H](C)NC(=O)[C@@H]1CSSC[C@H](NC(=O)[C@H](CCCCN)NC(=O)CC[C@H](NC(=O)CCCCCCCCCCCCCCCCCCC(=O)O)C(=O)O)C(=O)N[C@@H](CC(N)=O)C(=O)N[C@@H]([C@@H](C)O)C(=O)N[C@@H](C)C(=O)N[C@@H]([C@@H](C)O)C(=O)N1)[C@@H](C)O)C(=O)N1CCC[C@H]1C(=O)N[C@@H](CO)C(=O)N[C@@H](CO)C(=O)N[C@H](C(=O)N[C@@H](CC(N)=O)C(=O)N[C@H](C(=O)NCC(=O)N[C@@H](Cc1c[nH]cn1)C(=O)N[C@@H](CC(N)=O)C(=O)N[C@H](C(=O)N[C@@H](Cc1ccc(O)cc1)C(N)=O)[C@@H](C)O)C(C)C)[C@@H](C)O, also called compound 17) | 0.268 nM | 8.8 | 2.35 nM | 0.878 nM
